Assay results from the DeepSol protein solubility set.

test: soluble on expression in E. coli; label from the status in PepcDB or PDB records

Row | Sequence | soluble on expression in E. coli
1 | MAISKLFFAYFHKNEKPFKMLCLPLLPLKNVINQMSFESVWRLSKTSRKMYEKIKNVKKSIYKIVIDNRFEYNIIYPRFKTRILRFEKKSDFVSVYNEMGTNKEITASVYLKFSVDFWIELFYKLDKRGPGKLRSSVYKLNHLKKRLKYLNRFDELFSIKHVDLVIDKYKLFGDSISHPLFQKCDYMEIVGNTSYISNNEMNFVLNNFKLKNGLLTNCLIAEDFDVTAMQQIPRLVIFNAQHITVEDLIKMDCETIKLCYHQFKPRHINQLLHHWLSGEMPKLRRFRLNFYCDTTWIGVVLSGIEHSKWDGQRRAKFFRDGIESIDCGNGFDIERNDGLLATFSSLEDSIDFVVWGNISAL | not soluble
2 | MVAAGDINVRVTSMDSELEFAIQSSTTGKQLFDQVVKTIGLREIWYFGLQYTDNKGFPTWLKLNKKVLSQDVKKDPTLVFKFRAKFYPEDVAEEIIQDVTMRLFYLQVKDGILSDEIYCPPETSVLLASYAMQAKYGDYVPETHVAGCLTADRLLPQRVLGQFKLNSEEWERRIMTWWADHRATTREQAMLEYLKIAQDLEMYGVNYFEIRNKKGTDLYLGVDALGLNIYDKADRLSPKVGFPWSEIRNISFNDKKFVIKPIDKKAHDFVFYAPRLRINKRILALCMGNHELYMRRRKPDTIEVQQMKQQAREDRALKIAEQEKLTREMSAREEAEQRQRDAEKRMAQMQEDMERARLELAEAHNTIHSLEAQLKQLQLAKQALEQKEYELRELTAQLQSEKAMSDGERRHLRDQVDAREREVFSMREEVERQTTVTRQLQTQIHSQQHTQHYSNSHHVSNGHAHDETATDDEDNGATELTNDADQNVPQHELERVTAAEKNIQIKNKLDMLTRELDSVKDQNAVTDYDVLHMENKKAGRDKYKTLRQIRGGNTKRRIDQYENM | not soluble
3 | MTKERFVISRRRTGFGDCLWSLASAWSYAQRTGRTLVIDWRGSCYVEQPFSNAFPAFFEPVEDIAGVPVICDDRVNQLSFPGPFFPRWWNRPSIDCINRPDEQIFRERDELTELFQAREDSEANTIVCDACLMWRCSEEAERLIFRNIKLRSEIRARIDALYEEHFSGHSIIGVHVRHGNGEDIMEHAPYWADSELALHQVCMAIRKAKALSYPKPVKVFLCTDSAQVLDQVSGLFPDVFAVPKRFQADRAGPLHSAEMGIEGGASALIDMYLLARCATVIRFPPTSAFTRYARLLVPRIIEFDLSNPGHLTMIDNPYEHFAASHHHHHH | soluble
4 | MSLKSELPPVQVALDLVDLPRAIEIAKEAVAGGVTWVEAGTPLIKSEGMNAIRELRKNFPTLTIVADMKTMDAGSTEVEMAAKAGANVILILGVGPDSMIIDAVKAGKKYGVLVGTDLIATEDPIKRAVELEEMGVDIINIHVGLDQQVLNVDPVELVKRVSENCKKAKIAAAGGLNSETAVKAYEAGADIIIAGGTLYKSADPEQTARDIIKGLKTGKPVKTDKFKKFNESELVSAFNVVSTSNISDAMHRTGEMKGLKPVWNSEKPLKFAGPAVTVRTYSGDWSKPVSAIDDCEAGNVLVIDNCSSEIACWGGLATLSCETKGVVAIVIDGAVRDVEEILKIGIPVFARSITPTAGEPKGFGEINAVIDCAGRTVEPGDWIVGDENGIIVVPKNEAMEIANRAIDVKEREDRVKEEITRGTTLAKTIRLKDWELKEGHHHHHH | soluble
5 | MAKEWFTVKECLGLPGFPGSEPAVRERLYKYSEGKEGVRRKRVKSKAEEFHISVFPLYVHRYLDDSGEEPTPEPISLQEAEPEDIWEMMFRLLTPEQRKQVTGRFKVRGMKAVFPFLFDDTPPR | not soluble
6 | MDVTCNIKNGRCEQFCKNSADNKVVCSCTEGYRLAENQKSCEPAVPFPCGRVSVSQTSK | soluble
7 | MDSAFVDRAWDKWVTTGNVGSSDFEKKMKNPERKNKMLLFGDLIVGICSGPSRLLSTIAKQEGIDIYPVDLKQFIDFMRCGNLPTETFVLGSNQCKNIITSIHENWFAARCLNTSQPAGEGAIVMQTAVYVLVALYDGSIGSASQAMAAADQFASQLSRKNF | soluble
8 | MYNDEELITVQPEAFKALTPSKKFNETSNKLLDLAYSDDGNNLIVSAEDVVLVYDLRDGSKGKSIECKKYGVNCLEYLDTVKCVHSGPNDTTIRLLHLQKKSYVRYFDGHRMPVNFIRTNPKDREKFLSSSVDGEIRMFDTRTFENYGCLLAGHTPLIAFDPDGILFAVATKSDTIKLFDMRSFDLGPFQSFIITKTDNDEWSDIEFSPCGKFILISTTAGSVKWIDAFDGTLIHSFSQHKNPNVSFF | not soluble
9 | MQHLEAVRNILGDVLNLGERKHTLTASSVLLGNIPELDSMAVVNVITALEEYFDFSVDDDEISAQTFETLGSLALFVEHKLSH | soluble
10 | KEAMRMLMREELEKVLKTLSPREAMVLRMRYGLLDGKPKTLEEVGQYFNVTRERIRQIEVKALRKLRHPSRSKYLKSLLSLMDENEG | soluble
11 | MFCDRIRGSLTKDKERIMSSKNYIDVIIDGKIYNIGGFESEAYLQKVASYINNMIAEFKQNENYRVQKVDMQRILLEINIANDYFKAKKQADLLQNDIELKEKEVYDLKHELIVSDSKAETATKELNEALEKIESLEKEIIKLQTELEK | not soluble
12 | MKKILVTGSLGQIGSELVMKLRDVYGASNVIATDIRETDSEVVTSGPFETLDVTDGQKLHDIAKRNEVDTIIHLAALLSATAEKNPLFAWNLNMGGLVNALEAARELNCKFFTPSSIGAFGPSTPKDNTPQDTIQRPTTMYGVNKVAGELLCDYYHQKFGVDTRGVRFPGLISYVAPPGGGTTDYAVEIYYEAIKKGAYTSYIAEGTYMDMMYMPDALQAIISLMEADPSKLVHRNAFNITAMSFEPEQIAASIRKHIPTFTMDYAVDPARQTIADSWPNSIDATAAMKEWGFKAEYDLDKMTTDMLAKLKKKLTAELVMN | not soluble
13 | MSLHIVVIGAGIVGASTALELQRDGHRVTLVEPGQPGGPQAASFGNGAWLSPASVVPMSMPGLWKKVPGYLMDPLGPLTIRWTALPALAPWLLRFIAAGATVPKVEATARALKALLSDAPERHTALAAEAGLADLVERKGLLYAYPDRAAFEAEALAWRLRRDNGIVWRELDGPALKAFEPTLHPRYGFGALVEAGAHCVDPGAYVAGLVAFAESRGLTRIEAAATGFDIVGGRLQAVRTAKGSVPCDRAVIAAGIHSRALAAEAGDKVSLASERGYHVVVATPESGPHLPVMPSDGKMANTPTRAGLRASGQVELAAVAAAPNWKRADVLLDHLLNTYPGLPRQVPEARLSRWLGHRPSTPDGVPVIGQASACTDIVHAFGHGHVGLASGPITGRLVADIIAGRPPERDIRPYAAARFRREGHHHHHH | soluble
14 | MLPDSSVRLNKYISESGICSRREADRYIEQGNVFLNGKRATIGDQVKPGDIVKVNGQLIEPREAEDLVLIALNKPVGIVSTTEDGERDNIVDFVNHSKRVFPIGRLDKDSQGLIFLTNHGDLVNKILRAGNDHEKEYLVTVDKPITDEFIRGMGAGVPILGTVTKKCKVKKEAPFVFRITLVQGLNRQIRRMCEHFGYEVKKLERTRIMNVSLSGIPLGEWRDLTDDELIDLFKLIENSSSEAKPKAKAKPKTAGIKRPVVKMEKTAEKGGRPASNGKRFTSPGRKKKGR | not soluble
15 | MSLMYPLVLDLAADGIPVTVTCRVLGFSTQAFYKWRKAPLTQRDWDDAHLINAARDIHADDPAFGYRFIADELPGRGITAGENRVARLCSQERIWSIFAKKRGLNRRSGPPVHDDLVERQFSAQAANQVWLTDITEHRTNEGKLYLCAIKDVYSNRIVGYSMDSRMKSSLAVAALDHAVALRSPVATIVHSDRGSQFRSRKFVRALSRNGLQGSMGRVGACGDNAAMESFFALLQRNVLDRKRWSTRAELRLAIVTWIERTYHRRRRQRALGRLTPIEFELLRTSVATAAEGHHHHHH | not soluble
16 | MAESLITKKAIAGGLMELCQHKRFEKISIADITNICGLNRQTFYYHFTDKYDLLTWTYENDFFHCLADGITLENWDKHVLKMLESIKENADFYKNTVSADASILSFCFSKLTNSLFMDLFEKIDTNGAVNEADRVFYAEFFSYGCSGVLIKWITRGFKEAPETIANQLFRLAKDTEFLANSMYRENLEHHHHHH | soluble
17 | GSHMASDLLELTEDMEKEISNALGHGPQDEILSSAFKLRITRGDIQTLKNYHWLNDEVINFYMNLLVERNKKQGYPALHVFSTFFYPKLKSGGYQAVKRWTKGVNLFEQEIILVPIHRKVHWSLVVIDLRKKCLKYLDSMGQKGHRICEILLQYLQDESKTKRNSDLNLLEWTHHSMKPHEIPQQLNGSDSGMFTCKYADYISRDKPITFTQHQMPLFRKKMVWEILHQQLL | soluble
18 | MTVRSRFFTEAEGKAVGVENAAAKGDVLLVCEHASATIPQKYGTLGLSADVLSSHAAWDPGALAVARLLSEKFHATLVYQRFSRLVYDCNRPPESPSAMPVKSEIYDIPGNFDLDEAERFARTSALYVPFHDRVSEIIAERQAAGRKVVVVTIHSFTPVYHGRFREVEIGILHDNDSRLADAMLAGAEGASLTVRRNDPYGPEDGVTHTLRLHALPDGLLNVMIEIRNDLIANEGEQAAIAGFLHELMGKALSSIEE | soluble
19 | MFGFSNSDISVSSGHTSHLDEVLPQSMYMVDADGRMVRWSPWFRDRIAGFSDAEMASTDFLELIHPEDRALVRQRMRKILDQGVQDSLEVRIFLKGGPAFRWFLLMANRYEYAGHYFITGTGIDIT | not soluble
20 | TTHFTVADRWGNVVSYTTTIEQLFGTGIMVPDYGVILNNELTDFDAIPGGANEVQPNKRPLSSMTPTILFKDDKPVLTVGSPGGATIISSVLQTILYHIEYGMELKAAVEEPRIYTNSMSSYRYEDGVPKDVLSKLNGMGHKFGTSPVDIGNVQSISIDHENGTFKGVADSSRNGAAIGINLKRKLEHHHHHH | soluble
21 | MSLNAKPKDTVIANARIVLADRVIEQGWLALANGRVAEIGEGRAPAGAEDAGGDLIMPGLIELHTDHLEAHYVPRPKVFWNPVAAVVSYDGQLATSGITTVFDSLRVWREDGAEEVDGRAGVLAAAITTARDADLLRADHFLHLRCEIPMPSVVEEAKELIDRPDVKLMSLMDHTPGQRQFRDEGKLRDYYRGKNGGKTDAQLDELFAKRFEYQKAYAATNMREIVALAHQYNIPLASHDDTTEENVADAVRDRVSVAEFPTTLEAARGLHQAGIDILMGAPNVVRGGSHSGNIAAVDLAREGLLDILSSDYIPSSLLMAALQLPEHVPAISLPAAVRTVTKAPAEAVGLSDRGEIAVGKRADLIRVHIAGSVPVVRSVWREGGRVAEGHHHHHH | soluble
22 | MLTLYTSPSCTSCRKARAWLQEHEIPFKERNIFSEPLNIEELKAILIMTEDGTEEIISTRSKVFQKLNMDLDELPLQDLLELVQENPGLLRRPIMIDEKRLQVGFNEDEIRRFLPRDVRQLELRQAQLMAGL | soluble
23 | MGSDKIHHHHHHMTPSEYQNPILCADYSDPDIVRVGDDFFMVSSSFNHVPALPILHSTDLVNWTIINHVMDELPLPGYDRYQPGKGVWAPSIRWHDGKLWVCFSTPDEGIFICHTEDPWGKWSAPHCLREARGWIDPCPFWDDNGQAWLVHAFAHSRSGIKHKLQLFAMAPDASELLGEGQIIYDGCCDLPTLEGPKVYQRAGWYYIFAPAGGVENGWQTVLRARQMTGPWEAKNVLFQGNTSINGPHQGGWVEGEEGECWFVHFQDLHLYGRVVHLQPMSWGNDGWPRIGEQIGNCGVGQPVLRWPRPKGLTPSPALAPQTSDYFAQGQPGIQWQWQANPSPEWLLPAEGELRLRCVPLSEVDGQRALYWAPQLLLQKFPALTFSAKTSVTLYAAQDGDAGGLIVYGERYAALLVEFGQGGYRLVWRHGWMSDAGVVRETRQVLAELKCGKCQLQVAVGEGGLCQFSWRAEEEWRKVPLCFAAGKGKWVGAKFGLLAASMVGLQSEGYSALQDFEVIL | not soluble
